Laboratory results: PMC8689070

Key:
[1] = system: CovR-P (SP-TyK-phosphorylated) (Streptococcus pyogenes (M1T1 5448?; locus numbering MGAS5005)); test: EMSA
[2] = system: CovR (non-phosphorylated) (Streptococcus pyogenes (M1T1 5448?; locus numbering MGAS5005)); test: EMSA

PcovR
binding signal (fold vs non-phosphorylated CovR) [1]: 4
binding signal (fold of CovR-P binding) [2]: 0.25
